Assay results reported in patent US20250051474A1, “ANTI-CD97 ANTIBODIES AND ANTIBODY-DRUG CONJUGATES” (New York University, priority 2023, published 2025).

Assays:
[1] = target: T1, CD97 (ADGRE5) isoform 1 ectodomain, purified and biotinylated (human, UniProt P48960 21-552, limits assumed, biotinylated in vitro using the BirA enzyme); experiment: bead-based binding assay: biotinylated CD97 isoform 1 on streptavidin beads, Fab titrated, flow cytometry MFI, 1:1 fit; EXPERIMENT 2
T1 construct: the whole entry for isoform 1 is named here; also called CD97 isoform 1; Biotinylated CD97 isoform 1
T1 sequence: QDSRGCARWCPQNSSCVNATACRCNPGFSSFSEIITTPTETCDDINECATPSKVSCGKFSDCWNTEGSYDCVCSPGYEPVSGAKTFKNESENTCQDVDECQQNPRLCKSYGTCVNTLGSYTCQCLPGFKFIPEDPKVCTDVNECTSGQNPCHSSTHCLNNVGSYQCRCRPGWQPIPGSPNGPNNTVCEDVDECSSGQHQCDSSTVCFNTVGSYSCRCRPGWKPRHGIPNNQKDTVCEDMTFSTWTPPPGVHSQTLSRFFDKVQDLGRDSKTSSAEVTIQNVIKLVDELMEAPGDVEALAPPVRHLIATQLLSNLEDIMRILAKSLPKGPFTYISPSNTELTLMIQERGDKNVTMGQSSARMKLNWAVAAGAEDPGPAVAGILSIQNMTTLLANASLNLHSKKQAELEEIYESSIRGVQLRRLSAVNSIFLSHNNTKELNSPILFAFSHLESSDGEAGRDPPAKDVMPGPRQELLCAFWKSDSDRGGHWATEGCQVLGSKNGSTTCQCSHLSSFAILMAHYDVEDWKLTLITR

[2] = target: T1, CD97 (ADGRE5) isoform 1 ectodomain, …; experiment: bead-based binding assay: biotinylated CD97 isoform 1 on streptavidin beads, Fab titrated, flow cytometry MFI, 1:1 fit; EXPERIMENT 1
[3] = target: T2, CD97 isoform 1 (Homo sapiens, UniProt P48960); experiment: Bead-based binding assay of Fab clones; settings: Fab format, compared with wild type A8
T2 construct: The genes encoding the ectodomains of CD97 (isoforms 1 and 2) and EMR2 (isoforms 1 and 4); inferred from IMAC purification; inferred from BirA biotinylation; made in house; host or cells: expi293F
T2 sequence (P48960 21-552 limits assumed): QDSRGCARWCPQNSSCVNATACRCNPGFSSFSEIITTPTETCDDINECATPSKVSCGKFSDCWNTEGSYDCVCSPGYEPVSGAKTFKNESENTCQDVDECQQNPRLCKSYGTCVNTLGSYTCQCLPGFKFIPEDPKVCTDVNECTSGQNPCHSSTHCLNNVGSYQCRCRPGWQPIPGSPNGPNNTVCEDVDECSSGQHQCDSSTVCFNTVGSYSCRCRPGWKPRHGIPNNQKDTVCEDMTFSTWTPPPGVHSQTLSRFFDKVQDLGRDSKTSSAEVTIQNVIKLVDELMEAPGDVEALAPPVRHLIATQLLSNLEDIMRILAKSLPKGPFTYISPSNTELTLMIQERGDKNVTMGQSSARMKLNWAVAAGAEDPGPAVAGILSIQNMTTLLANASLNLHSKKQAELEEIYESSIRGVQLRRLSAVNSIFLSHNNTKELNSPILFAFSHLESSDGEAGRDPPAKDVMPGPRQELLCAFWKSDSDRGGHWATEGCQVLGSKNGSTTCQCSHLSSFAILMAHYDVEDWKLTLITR
Experimental: Binding titration of the Fab clones was performed by a bead binding assay, as described previously (7,8). Briefly, biotinylated antigens were immobilized on Dynabeads M-280 streptavidin (Thermo Fisher). The biotinylated Fab clones were titrated into a solution containing the antigen-coated beads. After incubation, the beads were washed three times and incubated with anti-human F(ab′)2-Alexa Fluor 647 (Jackson ImmunoResearch). The beads were further washed three times and analyzed on a HyperCyt (Intellicyt).
The genes encoding the ectodomains of CD97 (isoforms 1 and 2) and EMR2 (isoforms 1 and 4) (FIG. 1) were synthesized (Integrated DNA Technologies) and cloned into the mammalian expression vector pBCAG. The expi293F cells (Thermo Fisher) were transfected with the vectors using the ExpiFectamine 293 transfection kit (Thermo Fisher) according to the manufacturer's protocol. The cells were incubated at 37° C. with 8% CO2. The proteins were purified from the cell culture supernatant by immobilized metal affinity chromatography (IMAC). The purified proteins were biotinylated in vitro using the BirA enzyme in the presence of 0.5 mM Biotin and 10 mM ATP. After the removal of the BirA enzyme by IMAC, the proteins were further purified by size exclusion chromatography using a Superdex 200 10/300 Increase (Cytiva). The purity of the proteins was confirmed by SDS-PAGE.

[4] = target: EMR2 (EGF-like module-containing mucin-like hormone receptor-like 2) isoform 1 ectodomain, purified and biotinylated (UniProt Q9UHX3); experiment: bead-based binding titration (biotinylated antigen on streptavidin beads, flow cytometry), 1:1 fit
[5] = target: T3, EMR2 (EGF-like module-containing mucin-like hormone receptor-like 2) isoform 4 ectodomain, purified and … (UniProt Q9UHX3-4 24-447, limits assumed, biotinylated in vitro using the BirA enzyme); experiment: as above
T3 construct: extracellular domain; Close homolog of CD97 used as specificity control
T3 sequence (looked up): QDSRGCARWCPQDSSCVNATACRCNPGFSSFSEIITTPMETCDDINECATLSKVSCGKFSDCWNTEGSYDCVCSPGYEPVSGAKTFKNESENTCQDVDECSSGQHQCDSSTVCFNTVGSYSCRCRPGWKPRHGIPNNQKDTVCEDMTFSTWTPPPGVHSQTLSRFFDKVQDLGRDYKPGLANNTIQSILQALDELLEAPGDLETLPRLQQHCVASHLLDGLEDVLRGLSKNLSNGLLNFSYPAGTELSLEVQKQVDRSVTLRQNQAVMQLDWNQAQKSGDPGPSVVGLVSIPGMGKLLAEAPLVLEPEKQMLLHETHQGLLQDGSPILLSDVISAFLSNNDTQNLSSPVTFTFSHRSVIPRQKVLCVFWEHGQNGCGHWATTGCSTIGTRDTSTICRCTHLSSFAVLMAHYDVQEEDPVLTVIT

[6] = target: T1, CD97 (ADGRE5) isoform 1 ectodomain, …; experiment: as above
[7] = target: T4, CD97 (ADGRE5) isoform 2 ectodomain, purified and biotinylated (human, UniProt P48960 21-552, biotinylated in vitro using the BirA enzyme); experiment: as above
T4 construct: the whole entry for isoform 2 is named here; also called CD97 isoform 2
T4 sequence: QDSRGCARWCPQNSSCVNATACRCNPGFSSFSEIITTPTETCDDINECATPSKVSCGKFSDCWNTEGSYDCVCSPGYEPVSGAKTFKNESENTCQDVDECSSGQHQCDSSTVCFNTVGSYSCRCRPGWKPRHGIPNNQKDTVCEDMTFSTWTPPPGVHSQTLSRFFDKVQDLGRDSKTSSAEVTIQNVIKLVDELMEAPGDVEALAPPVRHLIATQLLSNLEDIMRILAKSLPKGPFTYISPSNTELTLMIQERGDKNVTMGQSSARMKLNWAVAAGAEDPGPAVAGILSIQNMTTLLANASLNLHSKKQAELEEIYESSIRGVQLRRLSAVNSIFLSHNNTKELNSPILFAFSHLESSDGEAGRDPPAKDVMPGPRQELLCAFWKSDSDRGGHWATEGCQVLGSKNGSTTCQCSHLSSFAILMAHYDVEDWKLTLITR

[8] = target: T1, CD97 (ADGRE5) isoform 1 ectodomain, …; experiment: bead-based binding titration (biotinylated antigen on streptavidin beads, flow cytometry), 1:1 fit [Continued]
[9] = target: T4, CD97 (ADGRE5) isoform 2 ectodomain, …; experiment: as above
[10] = target: T3, EMR2 (EGF-like module-containing …); experiment: bead-based binding titration (biotinylated antigen on streptavidin beads, flow cytometry) [Continued]
[11] = target: T4, CD97 (ADGRE5) isoform 2 ectodomain, …; experiment: as above

B1: N100bHE (Fab, V domains shown)
VH: EVQLVESGGGLVQPGGSLRLSCAASGFTISSYSIHWVRQAPGKGLEWVASISPYYGSTSYADSVKGRFTISADTSKNTAYLQMNSLRAEDTAVYYCARSWYYYEQEPYWYQKEEQALDYWGQGTLVTVSS
VL: DIQMTQSPSSLSASVGDRVTITCRASQSVSSAVAWYQQKPGKAPKLLIYSASSLYSGVPSRFSGSRSGTDFTLTISSLQPEDFATYYCQQSVYSPVTFGQGTKVEIK
notes: also called A8 N100bHE; Antibody Clone A8 N100bHE; copies: 1 + 1
Kd [1]: 150 nM | Kd [2]: 160 nM

B2: A8 Y100fHA: A8 mutant, VL SEQ ID NO: 9, VH SEQ ID NO: 111 (antibody, V domains shown)
VH: EVQLVESGGGLVQPGGSLRLSCAASGFTISSYSIHWVRQAPGKGLEWVASISPYYGSTSYADSVKGRFTISADTSKNTAYLQMNSLRAEDTAVYYCARSWYYYEQNPYWAQKEEQALDYWGQGTLVTVSS
VL: DIQMTQSPSSLSASVGDRVTITCRASQSVSSAVAWYQQKPGKAPKLLIYSASSLYSGVPSRFSGSRSGTDFTLTISSLQPEDFATYYCQQSVYSPVTFGQGTKVEIKRTV
binding of A8 CDRH3 mutants to CD97 isoform 1 [3]: substantially reduced or abolished binding to CD97

B3: Fab 2V10 (Fab, V domains shown)
VH: EVQLVESGGGLVQPGGSLRLSCAASGFTISSSSIHWVRQAPGKGLEWVAYIYPSSGSTSYADSVKGRFTISADTSKNTAYLQMNSLRAEDTAVYYCARPWYYSTFNKKWWDYQGLDYWGQGTLVTVSS
VL: DIQMTQSPSSLSASVGDRVTITCRASQSVSSAVAWYQQKPGKAPKLLIYSASSLYSGVPSRFSGSRSGTDFTLTISSLQPEDFATYYCQQSWWDPITFGQGTKVEIKR
notes: second discovery campaign; biotinylated Fab in the bead assay; same clone as m10 in Fab format; also called Antibody Clone 2V10
Kd [4]: 1.6 nM | Kd [5]: 1.5 nM | Kd [6]: 2.7 nM | Kd [7]: 3 nM

B4: Fab D25 (Fab, V domains shown)
VH: EVQLVESGGGLVQPGGSLRLSCAASGFTFSSSSIHWVRQAPGKGLEWVASISPYYGSTSYADSVKGRFTISADTSKNTAYLQMNSLRAEDTAVYYCARKLEWGMFFWSPYFRALDYWGQGTLVTVSS
VL: DIQMTQSPSSLSASVGDRVTITCRASQSVSSAVAWYQQKPGKAPKLLIYSASSLYSGVPSRFSGSRSGTDFTLTISSLQPEDFATYYCQQSSSSLITFGQGTKVEIKR
notes: first discovery campaign; also called Antibody Clone D25
Kd [8]: 14 nM | Kd [9]: 14 nM

B5: Fab 2W1 (Fab, V domains shown)
VH: EVQLVESGGGLVQPGGSLRLSCAASGFTVSSSSIHWVRQAPGKGLEWVAYISSSSGSTYYADSVKGRFTISADTSKNTAYLQMNSLRAEDTAVYYCARDFYFGSYYSFGWGLDYWGQGTLVTVSS
VL: DIQMTQSPSSLSASVGDRVTITCRASQSVSSAVAWYQQKPGKAPKLLIYSASSLYSGVPSRFSGSRSGTDFTLTISSLQPEDFATYYCQQDSSYPITFGQGTKVEIKR
notes: second discovery campaign; biotinylated Fab in the bead assay; also called Antibody Clone 2W1
Kd [4]: 47 nM | Kd [5]: 52 nM | Kd [6]: 18 nM | Kd [7]: 18 nM

B6: Antibody clone C27, Fab format (Fab, V domains shown)
VH: EVQLVESGGGLVQPGGSLRLSCAASGFTLSSSSIHWVRQAPGKGLEWVASIYSYYGSTYYADSVKGRFTISADTSKNTAYLQMNSLRAEDTAVYYCARYRGNMYYWESWYGSYWALDYWGQGTLVTVSS
VL: DIQMTQSPSSLSASVGDRVTITCRASQSVSSAVAWYQQKPGKAPKLLIYSASSLYSGVPSRFSGSRSGTDFTLTISSLQPEDFATYYCQQSSSSLITFGQGTKVEIKR
Kd [8]: 16 nM | binding result [10]: no binding (tested: 50 nM) | binding result [11]: no binding (tested: 50 nM)

B7: Fab D9 (Fab, V domains shown)
VH: EVQLVESGGGLVQPGGSLRLSCAASGFTVSSSSIHWVRQAPGKGLEWVASISSYYGYTSYADSVKGRFTISADTSKNTAYLQMNSLRAEDTAVYYCARYPMFSYYYWYYGMDYWGQGTLVTVSS
VL: DIQMTQSPSSLSASVGDRVTITCRASQSVSSAVAWYQQKPGKAPKLLIYSASSLYSGVPSRFSGSRSGTDFTLTISSLQPEDFATYYCQQSSGYPVTFGQGTKVEIKR
notes: first discovery campaign; also called Antibody Clone D9
Kd [8]: 3.4 nM | Kd [9]: 3.6 nM

B8: Fab D12 (Fab, V domains shown)
VH: EVQLVESGGGLVQPGGSLRLSCAASGFTFSSSSIHWVRQAPGKGLEWVASISSSSGSTSYADSVKGRFTISADTSKNTAYLQMNSLRAEDTAVYYCARIRHYHWYEIPYWDWAIDYWGQGTLVTVSS
VL: DIQMTQSPSSLSASVGDRVTITCRASQSVSSAVAWYQQKPGKAPKLLIYSASSLYSGVPSRFSGSRSGTDFTLTISSLQPEDFATYYCQQSSSSLITFGQGTKVEIKR
notes: first discovery campaign; also called Antibody Clone D12
Kd [8]: 3 nM | Kd [9]: 3.2 nM
